Values of other authors in patent US10954506B2 (priority 2013, dated 2021).

Details: in vivo, iv

B1: BChE: Butyrylcholinesterase, natural stoichiometric bioscavenger found as soluble protein in human plasma (protein, UniProt P06276 29-602, looked up)
Cholinesterase: EDDIIIATKNGKVRGMNLTVFGGTVTAFLGIPYAQPPLGRLRFKKPQSLTKWSDIWNATKYANSCCQNIDQSFPGFHGSEMWNPNTDLSEDCLYLNVWIPAPKPKNATVLIWIYGGGFQTGTSSLHVYDGKFLARVERVIVVSMNYRVGALGFLALPGNPEAPGNMGLFDQQLALQWVQKNIAAFGGNPKSVTLFGESAGAASVSLHLLSPGSHSLFTRAILQSGSFNAPWAVTSLYEARNRTLNLAKLTGCSRENETEIIKCLRNKDPQEILLNEAFVVPYGTPLSVNFGPTVDGDFLTDMPDILLELGQFKKTQILVGVNKDEGTAFLVYGAPGFSKDNNSIITRKEFQEGLKIFFPGVSEFGKESILFHYTDWVDDQRPENYREALGDVVGDYNFICPALEFTKKFSEWGNNAFFYYFEHRSSKLPWPEWMGVMHGYEIEFVFGLPLERRDNYTKAEEILSRSIVKRWANFAKYGNPNETQNNSTSWPVFKSTEQKYLTLNTESTRIMTKLRAQQCRFWTSFFPKVLEMTGNIDEAEWEWKAGFHRWNNYMMDWKNQFNDYTSKKESCVGL
For B1, the effective dose is listed as “about 3 mg/kg”.
